# Patent US20260209266A1
# How the values were obtained:
# [1] = biological target: Protein A (immobilized on a chromatography column) (UniProt P38507); experiment: Protein A chromatography (rProtein A FF), step gradient, 20 mM sodium citrate, 1 M NaCl
# [2] = biological target: Protein A (immobilized on a chromatography column) (UniProt P38507); experiment: Protein A chromatography, linear pH gradient
elution pH from Protein A column [1],Substance,elution pH from Protein A column [2]
4 pH,differentially modified heterodimeric human IgG4 (Fc/ΔAdpFc) (from UniProt P01861 99-220; P01861 99-220),–
–,IgG1 heterodimer having two IgG1 heavy chains identical but for an H435R/Y436F dipeptide modification in one CH3 domain (antibody),3.9 pH
4.5 pH,differentially modified heterodimeric human IgG2 Fc/ΔAdpFc (from UniProt P01859 99-219; P01859 99-219),–
